The values below come from patent publication US20210395718A1, “NOVEL KETOSE 3-EPIMERASE” (NATIONAL UNIVERSITY CORPORATION KAGAWA UNIVERSITY, priority 2018, published 2021).

Positions count from the first letter of the chain named.

B1: Ketose 3-epimerase mutant 7: amino acid-substituted mutant of SEQ ID NO: 1 (protein)
chain: MKIGCHGLVWTGRFDAEGIRYSVQKTKEAGFDLIEFPLMDPFSFDVATAKSALAEHGLSVSASLGLSEATDVSSEDPAIVKAGEELLNRALDVLAELGATDFCGVIYSAMKKYMEPATEQGLSNSKAAVGRVVDRAAGLGINVSLEVVNRYETNVLNTGRQALSYLSDVKRPNLGVHLDTYHMNIEESDMFSPVLDTAEVLKYVHIGESHRGYLGTGSVDFDNFFKALGRIGYDGPVVFESFSSAVVAPDLSRMLGIWRNLWADNEELGAHANAFIRDKLTAIKTIELH
modifications: Arthrobacter histidinolovorans
B2: Ketose 3-epimerase mutant 21: amino acid-substituted mutant of SEQ ID NO: 1 (protein)
chain: B1 chain with D101E, V200A
modifications: Arthrobacter histidinolovorans
B3: Ketose 3-epimerase mutant 20: amino acid-substituted mutant of SEQ ID NO: 1 (protein)
chain: B1 chain with V129I, V200A
modifications: Arthrobacter histidinolovorans
B4: Ketose 3-epimerase mutant 11: amino acid-substituted mutant of SEQ ID NO: 1 (protein)
chain: B1 chain with S59T, V60A, V129I, V200A
modifications: Arthrobacter histidinolovorans
B5: Ketose 3-epimerase mutant 12: amino acid-substituted mutant of SEQ ID NO: 1 (protein)
chain: B1 chain with S59T, V60A, V129I, V200A, S218N
modifications: Arthrobacter histidinolovorans
B6: Ketose 3-epimerase mutant 26: amino acid-substituted mutant of SEQ ID NO: 1 (protein)
chain: B1 chain with S59T, V60A, L97M, V200A
modifications: Arthrobacter histidinolovorans
B7: Ketose 3-epimerase mutant 25: amino acid-substituted mutant of SEQ ID NO: 1 (protein)
chain: B1 chain with S59T, V60A, V200A, K202R
modifications: Arthrobacter histidinolovorans
B8: Ketose 3-epimerase mutant 10: amino acid-substituted mutant of SEQ ID NO: 1 (protein)
chain: B1 chain with V200A, S218N
modifications: Arthrobacter histidinolovorans
B9: Ketose 3-epimerase mutant 22: amino acid-substituted mutant of SEQ ID NO: 1 (protein)
chain: B1 chain with P77S, L94V, D101E, A109S, V129I, S144A, S167Q, S218N
modifications: Arthrobacter histidinolovorans
B10: Ketose 3-epimerase mutant 23: amino acid-substituted mutant of SEQ ID NO: 1 (protein)
chain: B1 chain with S59T, V60A, P172G, V200A
modifications: Arthrobacter histidinolovorans
B11: Ketose 3-epimerase mutant 19: amino acid-substituted mutant of SEQ ID NO: 1 (protein)
chain: B1 chain with V129I, S218N
modifications: Arthrobacter histidinolovorans
B12: Ketose 3-epimerase mutant 8: amino acid-substituted mutant of SEQ ID NO: 1 (protein)
chain: B1 chain with S59T, V60A, V129I, S218N
modifications: Arthrobacter histidinolovorans
B13: Ketose 3-epimerase mutant 18: amino acid-substituted mutant of SEQ ID NO: 1 (protein)
chain: B1 chain with S59T, V60A, D101E, V200A
modifications: Arthrobacter histidinolovorans
B14: Ketose 3-epimerase mutant 16: amino acid-substituted mutant of SEQ ID NO: 1 (protein)
chain: B1 chain with D101E, V129I, V200A
modifications: Arthrobacter histidinolovorans
B15: Ketose 3-epimerase mutant 24: amino acid-substituted mutant of SEQ ID NO: 1 (protein)
chain: B1 chain with S59T, V60A, S167Q, V200A
modifications: Arthrobacter histidinolovorans
B16: Ketose 3-epimerase mutant 17: amino acid-substituted mutant of SEQ ID NO: 1 (protein)
chain: B1 chain with S59T, V60A, D101E
modifications: Arthrobacter histidinolovorans
B17: Ketose 3-epimerase mutant 15: amino acid-substituted mutant of SEQ ID NO: 1 (protein)
chain: B1 chain with D101E
modifications: Arthrobacter histidinolovorans
B18: Ketose 3-epimerase mutant 9: amino acid-substituted mutant of SEQ ID NO: 1 (protein)
chain: B1 chain with V200A
modifications: Arthrobacter histidinolovorans
B19: Ketose 3-epimerase mutant 14: amino acid-substituted mutant of SEQ ID NO: 1 (protein)
chain: B1 chain with S59T, V60A
modifications: Arthrobacter histidinolovorans
B20: Ketose 3-epimerase mutant 13: amino acid-substituted mutant of SEQ ID NO: 1 (protein)
chain: B1 chain with S59T, V60A, V129I
modifications: Arthrobacter histidinolovorans

The first data set can be described thus: Thermal stability: residual activity after incubation at 60° C. for one hour. It counts as biochemical. As to conditions: crude recombinant enzyme; after incubation at 60° C. for 1 hour. The protocol: Thermal stability of the enzyme was investigated by measuring the activity of the enzyme after incubation at 60° C. for one hour and finding its relative activity supposing that the activity at 60° C. under the reaction conditions (10 minutes) used for determining the optimum temperature in the above 2 shown in Table 2 was 100. As heat treatment conditions, the crude enzyme solution, a buffer (50 mM tris-HCl, pH 7.5), and 2 mM MgCl2 were used to give a total amount of 200 p1 and after retaining at 60° C. for one hour, the reaction mixture was cooled for 10 minutes in ice water. The residual enzyme activity was then measured by the conventional method.
The activity of each of the present enzyme (crude recombinant enzyme) and the crude enzyme of the control enzyme after incubation at 60° C. for 1 hour was measured and a relative activity of it was determined supposing that the activity at 60° C. under the reaction conditions (10 minutes) for determining the optimum temperature in the above 2 shown in Table 2 is 100. The relative activity was used as a heat resistance index of the enzyme. As heat treatment conditions, the crude enzyme solution, a buffer (50 mM tris-HCl, pH 7.5), and 2 mM MgCl2 were used to give a total amount of 200 p1 and after retaining at 60° C. for one hour, the reaction mixture was cooled for 10 minutes in ice water. The residual enzyme activity was measured by the conventional method.
On to B1, for which the “Residual activity (%)” value was determined as 83.1%.
Take B2: the “Residual activity (%)” value was found to be 59.4%.
With B3, the “Residual activity (%)” value was determined as 52.1%.
Take B4: the “Residual activity (%)” value was found to be 68.6%.
Consider B5, for which the “Residual activity (%)” value is 90.5%.
As to B6, the “Residual activity (%)” value was determined as 68.9%.
For the molecule B7, the “Residual activity (%)” value was determined as 51.4%.
Take B8: the “Residual activity (%)” value came to 79.5%.
Still for that read-out and setting: the same measure for B9: 113.5%.
Still for that read-out and setting: then B10, with 65.8%; and B11, with 91.2%; and B12, with 115.3%.
With B13, the “Residual activity (%)” value was 72.1%.
As to B14, the “Residual activity (%)” value came to 54.0%.
Take B15: the “Residual activity (%)” value is given as 55.4%.
Turning to B16, the “Residual activity (%)” value amounted to 62.3%.
On the same count and under the same terms, the same measure for B17: 89.3%; for B18: 65.6%; for B19: 79.1%.
B20: the “Residual activity (%)” value turned out to be 83.7%.

A further data set in a line: Ketose 3-epimerase activity ratio (T70/T50) at reaction temperature of 70° C. to 50° C. The data set is classed as biochemical. As to conditions: crude recombinant enzyme; ratio of activity at 70° C. to activity at 50° C., 10 min reaction. How it is done: An enzyme having higher heat resistance than an amino acid substitution-free wild type enzyme can be obtained by introducing mutation into the gene of the ketose 3-epimerase of the present invention and substituting the corresponding amino acid residue with another amino acid residue by a site-directed mutagenesis operation to prepare various amino acid-substituted mutants. The heat resistance is evaluated by two indices, that is, a ketose 3-epimerase activity ratio (T70/T50) at the reaction temperatures of 70° C. to 50° C. and a residual activity after incubation at 60° C. for one hour.
Heat resistance of the present enzyme (crude recombinant enzyme) and the crude enzyme of the control enzyme was investigated by measuring an activity at 70° C. and an activity at 50° C. under the reaction conditions (10 minutes) used for determining the optimum temperature in the above 2 shown in Table 2 and finding their ratio (T70/T50).
In the case of B1, the T70/T50 is given as 2.03.
For B2, the T70/T50 is recorded as 1.70.
On the same count and under the same terms, the same measure for B3: 1.79; for B4: 1.95.
On to B5, for which the T70/T50 was 1.94.
Still for that read-out and setting: the same measure for B6: 1.65; for B7: 1.66; for B8: 1.98.
Turning to B9, the T70/T50 amounted to 1.70.
For B10, the T70/T50 came to 1.69.
Take B11: the T70/T50 is listed as 1.85.
For B12, the T70/T50 is reported as 2.03.
As for B13, the T70/T50 was determined as 1.85.
The same measure, in the same setting: then B14, with 1.89.
On to B15, for which the T70/T50 was 1.68.
With B16, the T70/T50 is given as 1.89.
B17: the T70/T50 worked out at 1.90.
For B18, the T70/T50 came out at 2.01.
Regarding B19, the T70/T50 came to 1.91.
Consider B20, for which the T70/T50 is 1.94.
